Assay results from patent US11912794B2, “Modulation of structured polypeptide specificity” (BicycleRD Limited, priority 2011, dated 2024).
Numbered stars: 1 amine (or outer) side, 2 acyl side, 3 side chain; on linkers, the order of the positions; unused ones are H or OH. Bridge positions count the residues as written; N and C are the ends. Ends that are not written are not given here. Peptide text beside a SMILES is read from it. TBMB = c1c(C[*:1])cc(C[*:3])cc1C[*:2]

Assays:
[1] = biological target: biotinylated human plasma Kallikrein (Homo sapiens, UniProt P03952); assay: Phage binding assay of individual clones, randomisation of peptide domains
Chain of biotinylated human plasma Kallikrein (P03952 20-638): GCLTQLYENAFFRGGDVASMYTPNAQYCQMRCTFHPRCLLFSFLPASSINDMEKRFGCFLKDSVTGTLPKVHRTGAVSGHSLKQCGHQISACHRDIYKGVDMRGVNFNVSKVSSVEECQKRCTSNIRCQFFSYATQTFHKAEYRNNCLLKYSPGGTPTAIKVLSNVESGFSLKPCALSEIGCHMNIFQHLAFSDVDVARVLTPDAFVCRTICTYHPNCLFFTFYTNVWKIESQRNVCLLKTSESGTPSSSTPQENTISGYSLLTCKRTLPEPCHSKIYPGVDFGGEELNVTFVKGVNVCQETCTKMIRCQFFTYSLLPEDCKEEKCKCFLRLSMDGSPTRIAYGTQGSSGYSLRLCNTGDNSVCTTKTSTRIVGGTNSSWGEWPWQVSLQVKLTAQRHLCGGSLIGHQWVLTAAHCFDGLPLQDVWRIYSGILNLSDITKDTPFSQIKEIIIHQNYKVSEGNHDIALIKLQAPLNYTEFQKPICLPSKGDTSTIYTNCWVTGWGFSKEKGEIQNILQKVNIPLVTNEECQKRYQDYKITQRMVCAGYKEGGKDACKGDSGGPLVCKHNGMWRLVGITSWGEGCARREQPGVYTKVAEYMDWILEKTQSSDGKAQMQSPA
Source text: Library construction: Small phage libraries were generated according to the methods of Heinis et al as described in ‘Cloning of phage libraries’ above. The sficx3ba primer was modified such that the bicycle-encoding portion was based on a parent 5×5 bicycle (5×5: two 5-residue loops) DNA sequence with only 4-6 codons randomized to NNS. The randomized codons were those encoding the peptide domain/motif of interest.
Assay of binding of individual clones: Library transformant colonies, or selection output colonies, were picked and grown as individual cultures in 2TY broth containing selective antibiotic. The picked colonies were DNA-sequenced using a QIAgen PyroMark Q96 DNA sequencer to reveal the amino-acid substitution present in each clone, and were assayed for human plasma Kallikrein binding as follows. The phage-containing supernatant was harvested from the culture and phage were cyclised with tris bromomethyl benzene(TBMB) based on the methods of Heinis et al (Nature Chemical Biology vol. 5 pp 502-507 (2009)). The purified phage from this process were assayed for binding to biotinylated human plasma Kallikrein using a homogeneous plate-based binding assay; assay read-out measured on a BMG Labtech Pherastar FS plate reader. The quantitative binding data from duplicate assay samples was averaged (mean) and expressed as signal:background. Assay data shown is representative of at least 2 independent experiments. The assay data was correlated with the peptide sequences.
The WPAR (SEQ ID NO: 18) motif identified from Example 1 was analysed in the context of the 06-34-03 peptide, in order to identify alternatives or improvements to the WPAR (SEQ ID NO: 18) motif. A library was constructed where positions 1, 6, 7, 8, 9 &10 of 06-34-03 were fixed and positions 2, 3, 4 & 5 were randomised (see ‘Randomisation of peptide domains—Library construction’ in Methods above). Selections against human plasma Kallikrein were performed at a variety of stringencies (see Phage selections' in Methods above). All output sequences were identified and analysed for target binding (see ‘Randomisation of peptide domains—Assay of binding of individual clones’ in Methods above). Table 17 lists each unique sequence, its relative abundance in the selection output (frequency), and a rank number according to target binding strength.
Selections against human plasma Kallikrein were performed with this library in order to study the non-WPAR (SEQ ID NO: 18) determinants of Kallikrein binding, and to isolate the optimal WPAR (SEQ ID NO: 18)-containing peptide sequence. Over 150 selection output sequences were isolated and screened for binding to human plasma Kallikrein (as described in Methods above). The sequences were ranked in order of Kallikrein binding and the top 50 sequences were aligned in Table 19. […]

Biotinylated hPK = biological target: T1, Biotinylated hPK (Homo sapiens, UniProt P03952); assay: Phage selections, abundance of sequences in selection outputs; assay type: binding; conditions: for Frequency (relative abundance in the total selection outputs): randomised WPAR motif at positions 2, 3, 4 & 5 within the 06-34-03 sequence
T1 construct: IHPKA, from human plasma; purchased Innovative Research, Novi, MI, USA IHPKA; host or cells: human plasma
T1 sequence (P03952 20-638): as above

[2] = randomised WPAR motif at positions 2, 3, 4 & 5 within the 06-34-03 sequence, 1 = best binding
[3] = WPAR domain fixed, positions 1, 6, 7, 8, 9 & 10 randomised, top 50

## SEQ ID NO: 75 (CSFPFRCTHQDLC; Synthetic sequence Kallikrein binder identified from selections using a randomised WPAR motif at positions 2, 3, 4 & 5 within the 06-34-03 sequence of PCT/EP2012/069898 (SEQ ID NO 58))
[1]; [2]
  Rank (sequences ranked according to Kallikrein binding): 3
Biotinylated hPK
  Frequency (relative abundance in the total selection outputs): 17

## SEQ ID NO: 84 (CSFPFRCTHQDLC; Synthetic sequence Kallikrein binder identified from selections using a randomised WPAR motif at positions 2, 3, 4 & 5 within the 06-34-03 sequence of PCT/EP2012/069898 (SEQ ID NO 58))
[1]; [2]
  Rank (sequences ranked according to Kallikrein binding): 12
Biotinylated hPK
  Frequency (relative abundance in the total selection outputs): 2

## SEQ ID NO: 92 (CSLPFKCTHQDLC; Synthetic sequence Kallikrein binder identified from selections using a randomised WPAR motif at positions 2, 3, 4 & 5 within the 06-34-03 sequence of PCT/EP2012/069898 (SEQ ID NO 58))
[1]; [2]
  Rank (sequences ranked according to Kallikrein binding): 20
Biotinylated hPK
  Frequency (relative abundance in the total selection outputs): 1

## SEQ ID NO: 97 (CSLPFRCTHQDLC; Synthetic sequence Kallikrein binder identified from selections using a randomised WPAR motif at positions 2, 3, 4 & 5 within the 06-34-03 sequence of PCT/EP2012/069898 (SEQ ID NO 58))
[1]; [2]
  Rank (sequences ranked according to Kallikrein binding): 25
Biotinylated hPK
  Frequency (relative abundance in the total selection outputs): 2

## SEQ ID NO: 85 (CSLPFRCTHQDLC; Synthetic sequence Kallikrein binder identified from selections using a randomised WPAR motif at positions 2, 3, 4 & 5 within the 06-34-03 sequence of PCT/EP2012/069898 (SEQ ID NO 58))
[1]; [2]
  Rank (sequences ranked according to Kallikrein binding): 13
Biotinylated hPK
  Frequency (relative abundance in the total selection outputs): 3

## SEQ ID NO: 125 (CAWPARCLHDDLC; Synthetic sequence Kallikrein binder containing a WPAR motif)
[1]; [3]
  Rank (sequences ranked according to Kallikrein binding): 12

## SEQ ID NO: 134 (CRWPARCTHQDLC; Synthetic sequence Kallikrein binder containing a WPAR motif)
[1]; [3]
  Rank (sequences ranked according to Kallikrein binding): 21

## SEQ ID NO: 152 (CDWPARCMHQEFC; Synthetic sequence Kallikrein binder containing a WPAR motif)
[1]; [3]
  Rank (sequences ranked according to Kallikrein binding): 39

## SEQ ID NO: 163 (CPWPARCLHTDLC; Synthetic sequence Kallikrein binder containing a WPAR motif)
[1]; [3]
  Rank (sequences ranked according to Kallikrein binding): 50

## SEQ ID NO: 162 (CSWPARCLHDDLC; Synthetic sequence Kallikrein binder containing a WPAR motif)
[1]; [3]
  Rank (sequences ranked according to Kallikrein binding): 49

## SEQ ID NO: 155 (CSWPARCVHQDMC; Synthetic sequence Kallikrein binder containing a WPAR motif)
[1]; [3]
  Rank (sequences ranked according to Kallikrein binding): 42

## SEQ ID NO: 156 (CEWPARCLHTDLC; Synthetic sequence Kallikrein binder containing a WPAR motif)
[1]; [3]
  Rank (sequences ranked according to Kallikrein binding): 43

## SEQ ID NO: 131 (CQWPARCMHQDMC; Synthetic sequence Kallikrein binder containing a WPAR motif)
[1]; [3]
  Rank (sequences ranked according to Kallikrein binding): 18

## SEQ ID NO: 151 (CAWPARCLHQDWC; Synthetic sequence Kallikrein binder containing a WPAR motif)
[1]; [3]
  Rank (sequences ranked according to Kallikrein binding): 38

## SEQ ID NO: 115 (CNWPARCTHQDLC; Synthetic sequence Kallikrein binder containing a WPAR motif)
[1]; [3]
  Rank (sequences ranked according to Kallikrein binding): 1

## WPAR: phage clone: WPAR at positions 2-5 within the 06-34-03 sequence, TBMB-cyclised (also: TBMB-cyclised within the 06-34-03 context, the cysteines lie outside this motif)
[1]
  Kallikrein binding in target binding assay: optimal sequence for Kallikrein binding
Biotinylated hPK; 2nd stringency from High (1st value of cell)
  Relative abundance of motif in selection output: 19%
Biotinylated hPK; 3rd stringency from High (2nd value of cell)
  Relative abundance of motif in selection output: 13%
Biotinylated hPK; 4th stringency from High (3rd value of cell)
  Relative abundance of motif in selection output: 22%
Biotinylated hPK; 5th stringency from High (4th value of cell)
  Relative abundance of motif in selection output: 6%
Biotinylated hPK; stringency High
  Relative abundance of motif in selection output: 17%
Biotinylated hPK; stringency LOW
  Relative abundance of motif in selection output: 4%

## SEQ ID NO: 136 (CTWPARCLHQDLC; Synthetic sequence Kallikrein binder containing a WPAR motif)
[1]; [3]
  Rank (sequences ranked according to Kallikrein binding): 23

## SEQ ID NO: 89 (CSLPFRCTHQDLC; Synthetic sequence Kallikrein binder identified from selections using a randomised WPAR motif at positions 2, 3, 4 & 5 within the 06-34-03 sequence of PCT/EP2012/069898 (SEQ ID NO 58))
[1]; [2]
  Rank (sequences ranked according to Kallikrein binding): 17
Biotinylated hPK
  Frequency (relative abundance in the total selection outputs): 4

## CC(C)C[C@@H]1NC(=O)[C@H](CC(=O)O)NC(=O)[C@H](CCC(N)=O)NC(=O)[C@H](Cc2c[nH]cn2)NC(=O)[C@H]([C@@H](C)O)NC(=O)[C@@H]2CSCc3cc(cc(c3)CSC[C@@H](C(=O)N[C@@H](C)C(N)=O)NC1=O)CSC[C@H](NC(=O)[C@H](C)N)C(=O)N[C@@H](CO)C(=O)N[C@@H](Cc1c[nH]c3ccccc13)C(=O)N1CCC[C@H]1C(=O)N[C@@H](C)C(=O)N[C@@H](CCCNC(=N)N)C(=O)N2 [Peptide 06-34-03] (H-ACSWPARCTHQDLCA-NH2; linker 2-8-14 via TBMB; N-terminus and C-terminus assumed)
[1]
  Kallikrein binding in target binding assay: one of the best sequences

## SEQ ID NO: 154 (CTWPARCLHQHMC; Synthetic sequence Kallikrein binder containing a WPAR motif)
[1]; [3]
  Rank (sequences ranked according to Kallikrein binding): 41

## SEQ ID NO: 88 (CSLPFKCTHQDLC; Synthetic sequence Kallikrein binder identified from selections using a randomised WPAR motif at positions 2, 3, 4 & 5 within the 06-34-03 sequence of PCT/EP2012/069898 (SEQ ID NO 58))
[1]; [2]
  Rank (sequences ranked according to Kallikrein binding): 16
Biotinylated hPK
  Frequency (relative abundance in the total selection outputs): 1

## SEQ ID NO: 159 (CRWPARCTHTDLC; Synthetic sequence Kallikrein binder containing a WPAR motif)
[1]; [3]
  Rank (sequences ranked according to Kallikrein binding): 46

## SEQ ID NO: 121 (CQWPARCLHTDLC; Synthetic sequence Kallikrein binder containing a WPAR motif)
[1]; [3]
  Rank (sequences ranked according to Kallikrein binding): 8

## SEQ ID NO: 124 (CHWPARCTHQELC; Synthetic sequence Kallikrein binder containing a WPAR motif)
[1]; [3]
  Rank (sequences ranked according to Kallikrein binding): 11

## SEQ ID NO: 149 (CAWPARCTHTHLC; Synthetic sequence Kallikrein binder containing a WPAR motif)
[1]; [3]
  Rank (sequences ranked according to Kallikrein binding): 36

## SEQ ID NO: 147 (CSWPARCIHQDLC; Synthetic sequence Kallikrein binder containing a WPAR motif)
[1]; [3]
  Rank (sequences ranked according to Kallikrein binding): 34

## SEQ ID NO: 132 (CQWPARCTHSDLC; Synthetic sequence Kallikrein binder containing a WPAR motif)
[1]; [3]
  Rank (sequences ranked according to Kallikrein binding): 19

## SEQ ID NO: 120 (CAWPARCTHTDLC; Synthetic sequence Kallikrein binder containing a WPAR motif)
[1]; [3]
  Rank (sequences ranked according to Kallikrein binding): 7

## SEQ ID NO: 126 (CSWPARCLHTDLC; Synthetic sequence Kallikrein binder containing a WPAR motif)
[1]; [3]
  Rank (sequences ranked according to Kallikrein binding): 13

## SEQ ID NO: 123 (CTWPARCTHTDLC; Synthetic sequence Kallikrein binder containing a WPAR motif)
[1]; [3]
  Rank (sequences ranked according to Kallikrein binding): 10
